Assay results reported in US20180250358A1, “GHRH AGONISTS FOR THE TREATMENT OF ISCHEMIC DISORDERS” (published 2018).
Non-standard residues stand in square brackets, D forms with d. No end group written: not given here. *: point of attachment. Phe(F5) = N[C@@H](Cc1c(F)c(F)c(F)c(F)c1F)C(=O)O; Desaminotyrosyl = O=C(CCc1ccc(O)cc1)*; NMeY = CN[C@@H](Cc1ccc(O)cc1)C(=O)O; Agmatine = N=C(N)NCCCCN*; NMeA = CN[C@@H](C)C(=O)O; Nle = CCCC[C@H](N)C(=O)O; Orn = NCCC[C@H](N)C(=O)O; Abu = CC[C@H](N)C(=O)O; Aoc = NCCCCCCCC(=O)O

T1: GHRH receptor of human pituitary membranes (human, UniProt Q02643)
T1 sequence: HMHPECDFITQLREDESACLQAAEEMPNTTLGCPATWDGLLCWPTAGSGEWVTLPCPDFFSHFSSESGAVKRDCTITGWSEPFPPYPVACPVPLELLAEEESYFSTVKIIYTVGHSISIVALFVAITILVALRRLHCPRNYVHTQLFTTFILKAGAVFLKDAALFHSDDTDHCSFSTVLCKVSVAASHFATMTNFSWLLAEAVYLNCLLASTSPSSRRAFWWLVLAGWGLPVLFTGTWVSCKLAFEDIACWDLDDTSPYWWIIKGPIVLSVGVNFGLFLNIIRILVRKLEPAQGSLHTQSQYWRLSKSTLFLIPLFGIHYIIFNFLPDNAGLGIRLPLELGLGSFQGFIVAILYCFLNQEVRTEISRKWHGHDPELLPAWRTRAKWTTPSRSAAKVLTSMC

B1: P-21303 [N-Me-Tyr^1, D-Ala^2, Orn^12, Abu^15, Orn^21, Nle^27, Asp^28, Amc^30]hGHRH(1-30)NH2 (peptide)
peptide: [NMeY][dA]DAIFTNSYR[Orn]VL[Abu]QLSAR[Orn]LLQDI[Nle]DR[Aoc]-NH2
modifications: N-terminus assumed
SMILES: CCCC[C@H](NC(=O)[C@@H](NC(=O)[C@H](CC(=O)O)NC(=O)[C@H](CCC(N)=O)NC(=O)[C@H](CC(C)C)NC(=O)[C@H](CC(C)C)NC(=O)[C@H](CCCN)NC(=O)[C@H](CCCNC(=N)N)NC(=O)[C@H](C)NC(=O)[C@H](CO)NC(=O)[C@H](CC(C)C)NC(=O)[C@H](CCC(N)=O)NC(=O)[C@H](CC)NC(=O)[C@H](CC(C)C)NC(=O)[C@@H](NC(=O)[C@H](CCCN)NC(=O)[C@H](CCCNC(=N)N)NC(=O)[C@H](Cc1ccc(O)cc1)NC(=O)[C@H](CO)NC(=O)[C@H](CC(N)=O)NC(=O)[C@@H](NC(=O)[C@H](Cc1ccccc1)NC(=O)[C@@H](NC(=O)[C@H](C)NC(=O)[C@H](CC(=O)O)NC(=O)[C@@H](C)NC(=O)[C@H](Cc1ccc(O)cc1)NC)[C@@H](C)CC)[C@@H](C)O)C(C)C)[C@@H](C)CC)C(=O)N[C@@H](CC(=O)O)C(=O)N[C@@H](CCCNC(=N)N)C(=O)NCCCCCCCC(N)=O
B2: P-25501 [N-Me-Tyr^1, D-Ala^2, Orn^12, Abu^15, Orn^21, Nle^27, Gab^30]hGHRH(1-30)NH2 (peptide)
peptide: YADAIFTNSYRKVLGQLSARKLLQDIMSRQ
modifications: N-Me-Tyr^1; D-Ala^2; Orn^12; Abu^15; Orn^21; Nle^27; Gab^30 (in place of Gln^30); C-terminal -NH2
B3: P-27400 [Dat^1, D-Ala^2, Orn^12, Abu^15, Orn^21, Nle^27, Asp^28]hGHRH(1-29)NH-CH3 (peptide)
peptide: [Desaminotyrosyl][dA]DAIFTNSYR[Orn]VL[Abu]QLSAR[Orn]LLQDI[Nle]DR-NHMe
SMILES: CCCC[C@H](NC(=O)[C@@H](NC(=O)[C@H](CC(=O)O)NC(=O)[C@H](CCC(N)=O)NC(=O)[C@H](CC(C)C)NC(=O)[C@H](CC(C)C)NC(=O)[C@H](CCCN)NC(=O)[C@H](CCCNC(=N)N)NC(=O)[C@H](C)NC(=O)[C@H](CO)NC(=O)[C@H](CC(C)C)NC(=O)[C@H](CCC(N)=O)NC(=O)[C@H](CC)NC(=O)[C@H](CC(C)C)NC(=O)[C@@H](NC(=O)[C@H](CCCN)NC(=O)[C@H](CCCNC(=N)N)NC(=O)[C@H](Cc1ccc(O)cc1)NC(=O)[C@H](CO)NC(=O)[C@H](CC(N)=O)NC(=O)[C@@H](NC(=O)[C@H](Cc1ccccc1)NC(=O)[C@@H](NC(=O)[C@H](C)NC(=O)[C@H](CC(=O)O)NC(=O)[C@@H](C)NC(=O)CCc1ccc(O)cc1)[C@@H](C)CC)[C@@H](C)O)C(C)C)[C@@H](C)CC)C(=O)N[C@@H](CC(=O)O)C(=O)N[C@@H](CCCNC(=N)N)C(=O)NC
B4: P-20357 [Dat^1, D-Ala^2, N-Me-Ala^8, Orn^12, Abu^15, Orn^21, Nle^27, Asp^28, Agm^29]hGHRH(1-29)NH2 (peptide)
peptide: [Desaminotyrosyl][dA]DAIFT[NMeA]SYR[Orn]VL[Abu]QLSAR[Orn]LLQDI[Nle]D[Agmatine]
SMILES: CCCC[C@H](NC(=O)[C@@H](NC(=O)[C@H](CC(=O)O)NC(=O)[C@H](CCC(N)=O)NC(=O)[C@H](CC(C)C)NC(=O)[C@H](CC(C)C)NC(=O)[C@H](CCCN)NC(=O)[C@H](CCCNC(=N)N)NC(=O)[C@H](C)NC(=O)[C@H](CO)NC(=O)[C@H](CC(C)C)NC(=O)[C@H](CCC(N)=O)NC(=O)[C@H](CC)NC(=O)[C@H](CC(C)C)NC(=O)[C@@H](NC(=O)[C@H](CCCN)NC(=O)[C@H](CCCNC(=N)N)NC(=O)[C@H](Cc1ccc(O)cc1)NC(=O)[C@H](CO)NC(=O)[C@H](C)N(C)C(=O)[C@@H](NC(=O)[C@H](Cc1ccccc1)NC(=O)[C@@H](NC(=O)[C@H](C)NC(=O)[C@H](CC(=O)O)NC(=O)[C@@H](C)NC(=O)CCc1ccc(O)cc1)[C@@H](C)CC)[C@@H](C)O)C(C)C)[C@@H](C)CC)C(=O)N[C@@H](CC(=O)O)C(=O)NCCCCNC(=N)N
B5: P-27413 [Dat^1, Gln^8, His^11, Orn^12, Abu^15, His^20, Orn^21, Nle^27, Asp^28]hGHRH(1-29)NH-CH3 (peptide)
peptide: [Desaminotyrosyl]ADAIFTQSYH[Orn]VL[Abu]QLSAH[Orn]LLQDI[Nle]DR-NHMe
SMILES: CCCC[C@H](NC(=O)[C@@H](NC(=O)[C@H](CC(=O)O)NC(=O)[C@H](CCC(N)=O)NC(=O)[C@H](CC(C)C)NC(=O)[C@H](CC(C)C)NC(=O)[C@H](CCCN)NC(=O)[C@H](Cc1c[nH]cn1)NC(=O)[C@H](C)NC(=O)[C@H](CO)NC(=O)[C@H](CC(C)C)NC(=O)[C@H](CCC(N)=O)NC(=O)[C@H](CC)NC(=O)[C@H](CC(C)C)NC(=O)[C@@H](NC(=O)[C@H](CCCN)NC(=O)[C@H](Cc1c[nH]cn1)NC(=O)[C@H](Cc1ccc(O)cc1)NC(=O)[C@H](CO)NC(=O)[C@H](CCC(N)=O)NC(=O)[C@@H](NC(=O)[C@H](Cc1ccccc1)NC(=O)[C@@H](NC(=O)[C@H](C)NC(=O)[C@H](CC(=O)O)NC(=O)[C@H](C)NC(=O)CCc1ccc(O)cc1)[C@@H](C)CC)[C@@H](C)O)C(C)C)[C@@H](C)CC)C(=O)N[C@@H](CC(=O)O)C(=O)N[C@@H](CCCNC(=N)N)C(=O)NC

molecular target: T1, GHRH receptor of human pituitary …; test: competition vs 125I-JV-1-42, human pituitary membranes;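 note: pituitaries used were normal human glands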
From the text: Normal human pituitaries were purchased from the National Hormone and Peptide Program (A.F. Parlow, Los Angeles, County Harbor-UCLA Medical Center, Torrance, Calif.).

| IC50 [nM] | relative affinity (binding potency) vs JI-38 [vs JI-38=1] | Binder |
| --- | --- | --- |
| 1.87 | 2.32 | B1 |
| 3.05 | 1.43 | [NMeY][dA]DAI[Phe(F5)]TNSYR[Orn]VL[Abu]QLSAR[Orn]LLQDI[Nle]D[Agmatine] [P-20359 [N-Me-Tyr^1, D-Ala^2, Fpa5^6, Orn^12, Abu^15, Orn^21, Nle^27, Asp^28, Agm^29]hGHRH(1-29)NH2] |
| 1.07 | 4.07 | B2 |
| 3.35 | 1.3 | B3 |
| 0.86 | 5.06 | B4 |
| 2.45 | 1.78 | B5 |
